{"source": "paper PMC9652331", "experiment_in_all_cases": "EMSA", "key": {"[1]": {"molecular_target": "WTAP;VIRMA (Homo sapiens;Homo sapiens) (UniProt Q15007+Q69YN4)", "sequence (Q15007 whole entry, chain 1 of 2)": "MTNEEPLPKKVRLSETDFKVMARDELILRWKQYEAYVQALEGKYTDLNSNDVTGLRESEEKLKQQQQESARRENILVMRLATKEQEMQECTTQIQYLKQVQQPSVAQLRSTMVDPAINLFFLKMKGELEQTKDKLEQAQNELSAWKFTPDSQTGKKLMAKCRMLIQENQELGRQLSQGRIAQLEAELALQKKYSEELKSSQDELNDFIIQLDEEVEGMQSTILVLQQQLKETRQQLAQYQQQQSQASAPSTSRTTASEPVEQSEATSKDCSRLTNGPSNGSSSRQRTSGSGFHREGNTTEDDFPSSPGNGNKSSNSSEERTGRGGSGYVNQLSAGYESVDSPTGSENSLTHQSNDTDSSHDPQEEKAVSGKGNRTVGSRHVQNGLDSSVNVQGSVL", "sequence (Q69YN4 whole entry, chain 2 of 2)": "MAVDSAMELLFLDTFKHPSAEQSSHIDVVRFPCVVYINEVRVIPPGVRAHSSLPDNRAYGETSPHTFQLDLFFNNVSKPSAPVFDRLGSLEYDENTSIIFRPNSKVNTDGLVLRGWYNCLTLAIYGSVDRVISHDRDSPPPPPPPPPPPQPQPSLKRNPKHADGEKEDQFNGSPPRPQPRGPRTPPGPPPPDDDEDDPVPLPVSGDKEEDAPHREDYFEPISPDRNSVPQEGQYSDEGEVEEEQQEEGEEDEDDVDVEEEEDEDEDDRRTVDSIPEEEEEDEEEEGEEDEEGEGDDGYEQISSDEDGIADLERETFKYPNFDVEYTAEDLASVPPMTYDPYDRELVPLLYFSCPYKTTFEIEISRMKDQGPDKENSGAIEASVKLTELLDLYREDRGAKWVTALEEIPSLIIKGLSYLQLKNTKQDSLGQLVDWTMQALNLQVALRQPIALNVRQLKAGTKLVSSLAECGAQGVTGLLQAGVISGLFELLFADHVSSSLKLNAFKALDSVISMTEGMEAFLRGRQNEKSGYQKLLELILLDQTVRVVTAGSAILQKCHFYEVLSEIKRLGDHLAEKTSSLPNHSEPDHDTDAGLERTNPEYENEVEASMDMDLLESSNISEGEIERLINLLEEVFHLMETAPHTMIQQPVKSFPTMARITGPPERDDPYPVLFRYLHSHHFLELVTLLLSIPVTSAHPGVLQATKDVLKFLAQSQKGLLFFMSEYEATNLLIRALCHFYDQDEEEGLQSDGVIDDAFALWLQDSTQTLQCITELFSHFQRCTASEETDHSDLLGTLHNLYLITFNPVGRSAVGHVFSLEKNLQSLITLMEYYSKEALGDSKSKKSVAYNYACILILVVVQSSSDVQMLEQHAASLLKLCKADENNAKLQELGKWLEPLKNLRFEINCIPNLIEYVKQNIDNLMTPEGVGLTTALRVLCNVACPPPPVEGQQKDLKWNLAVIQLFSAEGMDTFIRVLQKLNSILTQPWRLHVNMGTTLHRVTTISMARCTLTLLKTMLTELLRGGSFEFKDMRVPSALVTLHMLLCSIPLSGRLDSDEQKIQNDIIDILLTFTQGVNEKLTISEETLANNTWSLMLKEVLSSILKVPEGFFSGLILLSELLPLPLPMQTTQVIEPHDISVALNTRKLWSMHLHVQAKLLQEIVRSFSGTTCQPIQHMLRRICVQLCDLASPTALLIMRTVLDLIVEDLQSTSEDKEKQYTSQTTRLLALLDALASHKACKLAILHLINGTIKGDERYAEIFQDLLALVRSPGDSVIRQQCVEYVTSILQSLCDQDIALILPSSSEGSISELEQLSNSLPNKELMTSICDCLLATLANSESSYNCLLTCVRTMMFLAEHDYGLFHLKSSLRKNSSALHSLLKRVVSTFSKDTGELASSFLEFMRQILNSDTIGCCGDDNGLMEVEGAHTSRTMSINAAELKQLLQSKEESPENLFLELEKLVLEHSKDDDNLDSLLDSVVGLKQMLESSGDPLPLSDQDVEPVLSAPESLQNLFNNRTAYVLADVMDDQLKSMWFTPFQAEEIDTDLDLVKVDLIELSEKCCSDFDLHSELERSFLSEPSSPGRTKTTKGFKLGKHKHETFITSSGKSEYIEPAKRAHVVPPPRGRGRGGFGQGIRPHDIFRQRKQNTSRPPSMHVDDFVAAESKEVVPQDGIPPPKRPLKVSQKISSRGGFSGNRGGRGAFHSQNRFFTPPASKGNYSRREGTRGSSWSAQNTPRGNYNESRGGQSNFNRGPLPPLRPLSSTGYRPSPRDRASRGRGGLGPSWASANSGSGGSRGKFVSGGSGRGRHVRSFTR", "conditions": "WV; EMSA: 5 nM FAM-RNA, 20 mM HEPES pH 7.5, 100 mM KCl, 10% glycerol, 1 mM DTT, 25 C, 20 min; 8% native PAGE in 1x TBE at 4 C; Kd from loss of free RNA, Hill fit …"}, "[2]": {"molecular_target": "HAKAI;WTAP;VIRMA (Homo sapiens;Homo sapiens;Homo sapiens) (UniProt Q75N03+Q15007+Q69YN4)", "sequence (Q75N03 whole entry, chain 1 of 3)": "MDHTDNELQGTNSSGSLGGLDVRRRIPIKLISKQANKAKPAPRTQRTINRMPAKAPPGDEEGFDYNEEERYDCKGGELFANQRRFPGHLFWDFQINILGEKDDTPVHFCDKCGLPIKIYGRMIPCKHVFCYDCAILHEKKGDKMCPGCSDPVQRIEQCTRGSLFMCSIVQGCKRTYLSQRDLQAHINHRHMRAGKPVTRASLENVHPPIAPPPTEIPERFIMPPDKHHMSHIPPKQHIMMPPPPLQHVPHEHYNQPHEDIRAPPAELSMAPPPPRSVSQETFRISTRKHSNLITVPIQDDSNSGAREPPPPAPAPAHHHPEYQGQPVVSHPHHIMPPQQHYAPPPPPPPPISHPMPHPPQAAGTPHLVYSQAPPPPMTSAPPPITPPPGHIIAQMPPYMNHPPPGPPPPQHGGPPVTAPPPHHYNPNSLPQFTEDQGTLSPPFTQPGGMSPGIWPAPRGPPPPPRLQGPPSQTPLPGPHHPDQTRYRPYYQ", "sequence (Q15007 whole entry, chain 2 of 3)": "as the sequence (Q15007 whole entry, chain 1 of 2) above", "sequence (Q69YN4 whole entry, chain 3 of 3)": "as the sequence (Q69YN4 whole entry, chain 2 of 2) above", "conditions": "HWV (no ZC3H13); EMSA: 5 nM FAM-RNA, 20 mM HEPES pH 7.5, 100 mM KCl, 10% glycerol, 1 mM DTT, 25 C, 20 min; 8% native PAGE in 1x TBE at 4 C; Kd from loss of free RNA, Hill fit …"}, "[3]": {"molecular_target": "HAKAI;WTAP;VIRMA;ZC3H13 (1106-1668) (Homo sapiens;Homo sapiens;Homo sapiens;Homo sapiens) (UniProt Q75N03+Q15007+Q69YN4+Q5T200)", "sequence (Q75N03 whole entry, chain 1 of 4)": "as the sequence (Q75N03 whole entry, chain 1 of 3) above", "sequence (Q15007 whole entry, chain 2 of 4)": "as the sequence (Q15007 whole entry, chain 1 of 2) above", "sequence (Q69YN4 whole entry, chain 3 of 4)": "as the sequence (Q69YN4 whole entry, chain 2 of 2) above", "sequence (Q5T200 1106-1668, chain 4 of 4)": "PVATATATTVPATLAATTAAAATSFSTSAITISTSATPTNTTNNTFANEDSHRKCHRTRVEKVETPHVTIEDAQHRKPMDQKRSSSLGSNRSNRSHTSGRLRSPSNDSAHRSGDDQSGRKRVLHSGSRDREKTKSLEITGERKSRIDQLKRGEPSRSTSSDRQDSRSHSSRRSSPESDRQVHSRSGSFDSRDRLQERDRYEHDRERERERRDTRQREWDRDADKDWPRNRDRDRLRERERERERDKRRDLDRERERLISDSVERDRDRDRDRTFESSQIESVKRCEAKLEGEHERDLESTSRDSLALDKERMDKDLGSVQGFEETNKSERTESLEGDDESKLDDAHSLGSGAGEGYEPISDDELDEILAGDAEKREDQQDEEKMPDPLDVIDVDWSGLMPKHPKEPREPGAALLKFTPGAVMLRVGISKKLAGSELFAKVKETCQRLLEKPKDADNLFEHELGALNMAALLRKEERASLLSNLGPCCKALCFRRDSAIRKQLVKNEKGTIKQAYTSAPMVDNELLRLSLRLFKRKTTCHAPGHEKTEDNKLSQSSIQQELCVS", "conditions": "HWVZ; EMSA: 5 nM FAM-RNA, 20 mM HEPES pH 7.5, 100 mM KCl, 10% glycerol, 1 mM DTT, 25 C, 20 min; 8% native PAGE in 1x TBE at 4 C; Kd from loss of free RNA, Hill fit …"}, "[4]": {"molecular_target": "WTAP;VIRMA;ZC3H13 (1106-1668) (Homo sapiens;Homo sapiens;Homo sapiens) (UniProt Q15007+Q69YN4+Q5T200)", "sequence (Q15007 whole entry, chain 1 of 3)": "as the sequence (Q15007 whole entry, chain 1 of 2) above", "sequence (Q69YN4 whole entry, chain 2 of 3)": "as the sequence (Q69YN4 whole entry, chain 2 of 2) above", "sequence (Q5T200 1106-1668, chain 3 of 3)": "as the sequence (Q5T200 1106-1668, chain 4 of 4) above", "conditions": "WVZ (no HAKAI); EMSA: 5 nM FAM-RNA, 20 mM HEPES pH 7.5, 100 mM KCl, 10% glycerol, 1 mM DTT, 25 C, 20 min; 8% native PAGE in 1x TBE at 4 C; Kd from loss of free RNA, Hill fit …"}}}
{"sequence": "GGCCCCUCCAUCGUCCACCGCAAAUGCUUCUAGGCGGACUAUGACUUAGUUGCGUUACACCCUUUCUUGACAAAACCUAACUUGCACAGAAAACA [ACTB-1 RNA]", "values": [{"measurement": "Kd", "setting": "[1]", "value": 826, "unit": "nM"}, {"measurement": "Kd", "setting": "[2]", "value": 563, "unit": "nM"}, {"measurement": "Kd", "setting": "[3]", "value": 214, "unit": "nM"}, {"measurement": "Kd", "setting": "[4]", "value": 256, "unit": "nM"}]}
